The target in this test is T1, soluble EGFR (sEGFR): amino acids 1-619 of mature human EGFR with (Gly)4Ser linker and (His)6 tag (human, UniProt P00533 25-643, biotinylated with Sulfo-NHS-LC-Biotin (B-sEGFR) in the filter lift and the capture ELISA).
T1 construct: range 25-643; also called B-sEGFR; biotinylated sEGFR
In words: KinExA; calculated as Kd x kon.

B1: full-length monoclonal antibody VH4.15 (antibody, V domains shown)
VH: QVQLQESGPGLVKPSETLSLTCTVSGFSLTNYGVHWIRQPPGKGLEWIGNIWSGGNTDYNTPFTSRVTISVDTSKNQFSLKLSSVTAADTAVYYCARALDYYDYDYAYWGQGTMVTVSS
VL: EIVLTQSPDFQSVTPKEKVTITCRASYSIGTNIHWYQQKPDQSPKLLIKYASESISGVPSRFSGSGSGTDFTLTINSLEAEDAATYYCQQNNEWPTSFGGGTKVEIK
notes: Full-length antibody with human Fc
On to B1, for which the off-rate constant (koff) was 1.46e-06 s⁻¹.

Usually koff stands for a measure of how fast the partners let go of each other.

These data come from patent publication EP1951759B1 (ELI LILLY AND COMPANY, dated 2010).
